Data on 22 substances can be found in patent publication US9073997B2, “Growth factor antagonists for organ transplant alloimmunity and arteriosclerosis” (VEGENICS PTY LIMITED, priority 2007, dated 2015).

The target in test [1] is T1, VEGF-A 109 (Homo sapiens, UniProt P15692).
T1 construct: fragments with 109 residues each (called VEGF-A 109 and VEGF-C 109); His6 (C); made in house; host or cells: 293T cells (labelled supernatant)
T1 sequence (P15692 with tags, fused parts or gaps): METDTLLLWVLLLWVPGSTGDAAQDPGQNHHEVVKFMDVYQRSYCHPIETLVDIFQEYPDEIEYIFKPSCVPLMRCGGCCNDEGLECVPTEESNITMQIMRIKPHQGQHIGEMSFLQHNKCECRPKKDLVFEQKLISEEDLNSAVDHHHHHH
Briefly: Receptor fragment/Fc fusion ligand precipitation binding assay, VEGF-A 109. The note with it: VEGFR-2 Fc fusion constructs; tritiated VEGF-A 109 precipitated, analysis of PAGE gels. The source says: (§1) The binding assays utilized minimal VEGF-A (SEQ ID NOS: 106 and 107) and VEGF-C (SEQ ID NOS: 108 and 109) fragments with 109 residues each (called VEGF-A 109 and VEGF-C 109). These constructs are not naturally occurring, but are effective for binding assays. Other growth factor constructs, either natural or artificial, may also be used for performing these assays.
(§2) Either Tritiated VEGF-A 109 or VEGF-C 109 was used in a given binding experiment. Ligand in solution was precipitated by mixing […] of ligand solution with 100 μl binding mix at 4° C. overnight, with agitation. The ligand solution may be the supernatant of metabolically labeled 293T cells. The binding mixes used for the receptor binding analysis were as follows: for VEGFR-1 binding assays, the binding mix was phosphate buffered saline (PBS) containing 1.5% BSA, 0.06% Tween 20, 3 μg/ml heparin and 400 ng/ml VEGFR-1-Fc fusion protein (100 μl of this binding mix was added to 200 μl of ligand solution). For VEGFR-2 binding assays, the binding mix was 82% conditioned cell supernatant from 293T cells transiently expressing VEGFR-2-Fc fusion protein in mixture with 18% of a PBS solution that contained 5% BSA, 0.2% Tween 20, and 10 μg/ml heparin (250 μl of binding mix was added to 200 μl of ligand solution). For VEGFR-3 binding assays, the binding mix was 82% conditioned cell supernatant from 293T cells transiently expressing VEGFR-3-Fc fusion protein, 18% of PBS containing 5% BSA, 0.2% Tween 20, and 10 μg/ml heparin (250 μl of binding mix was added to 200 μl of ligand solution). To collect precipitated ligand, 50 μl of a 30% protein A sepharose (PAS, Pharmacia) slurry in PBS was added and incubated under agitation for at least 1.5 hr at 4° C. Standard buffer was added to each immunoprecipitation sample and boiled for 5 minutes at 95° C. during which the immunopreciptated proteins become dissociated from the protein A sepharose. After centrifugation, 10 μl of each sample was analyzed on 15% SDS-PAGE under reducing conditions. The gels were dried and exposed for either 12 hours on phosphorimager plates or 4 weeks on X-ray film.
(§3) Tables 3 and 4 identify constructs by name, a DNA and deduced amino acid sequence from the sequence listing, the portion of VEGFR-2 (SEQ ID NO: 4) or VEGFR-3 (SEQ ID NO: 6) amino acid sequence that was included in the constructs, whether the constructs expressed, and, if tested, whether constructs bound ligand. The table data is compiled from analysis of PAGE gels. The asterisk adjacent to the “B*” indicates a “spill-over” from the adjacent lane, as the origin of the bands seen in the “B” lane. A failure to express under the particular experimental conditions used in this instance should not be interpreted as a failure to bind. The experiments can be repeated using different receptor fragments, binding constructs, ligands, or combinations thereof.

In test [2] the target is T2, VEGF-C 109 (Homo sapiens, UniProt P49767).
T2 construct: fragments with 109 residues each (called VEGF-A 109 and VEGF-C 109); His6 (C); made in house; host or cells: 293T cells (labelled supernatant)
T2 sequence (P49767 with tags, fused parts or gaps): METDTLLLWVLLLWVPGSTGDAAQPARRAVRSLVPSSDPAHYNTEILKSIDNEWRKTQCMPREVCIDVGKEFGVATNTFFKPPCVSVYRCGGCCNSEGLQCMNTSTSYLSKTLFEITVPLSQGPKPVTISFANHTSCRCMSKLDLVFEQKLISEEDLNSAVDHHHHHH
As to the kind of experiment: Receptor fragment/Fc fusion ligand precipitation binding assay, VEGF-C 109. The settings on record: tritiated VEGF-C 109 precipitated, analysis of PAGE gels.
From the text: as §1, §2, §3

The target of test [3] is T3, VEGF-A165 (Homo sapiens, UniProt P15692).
T3 construct: made in house; host or cells: 293T cells, transient transfection, 35S-labelled conditioned medium
T3 sequence (P15692 27-191 isoform P15692-4): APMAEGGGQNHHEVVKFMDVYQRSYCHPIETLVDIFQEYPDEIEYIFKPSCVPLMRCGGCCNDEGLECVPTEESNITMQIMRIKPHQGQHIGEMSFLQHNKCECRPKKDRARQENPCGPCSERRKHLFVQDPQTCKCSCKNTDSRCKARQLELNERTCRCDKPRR
As to the kind of experiment: Ligand binding analysis of chimeric VEGF receptor/hIgG1Fc fusions, VEGF-A165. The note with it: for binding to VEGF-A: 35S-labeled VEGF-A165 precipitated with conditioned medium of 293T cells, SDS-PAGE. On the procedure: (§4) For expression analysis, the two new chimeric VEGF receptors and control constructs expressing R-1D1-3/hIgG1Fc, R-2D1-3/hIgG1Fc, R-3D1-3/hIgG1Fc, mature VEGF-C and VEGF-A165 were transiently transfected into 293T cells using JetPEI (QBioGene/MP Biomedicals, Irvine, Calif.). Metabolic labeling with ^35S-methionine and ^35S-cysteine was carried out at 48 hours post-transfection and labeling maintained for 24 hours. The serum-free conditioned medium was then immunoprecipitated using Protein A sepharose and either: a) specific antiserum against human mature VEGF-C; b) goat polyclonal antibody against human VEGF-A (R&D systems, Minneapolis, Minn.); or, c) serum-free medium of 293T cells taken 48 to 72 hours post-transient transfection with VEGF receptor/hIgG1Fc proteins (control proteins, R-1D1-3, R-2D1-3, R-3D1-3; chimeric proteins, R-3D1-R2D2+3 and R-3D1-R2D2-R1D3).
(§5) The immunoprecipitated fractions were analyzed on 17% SDS-PAGE and the dried gels were exposed for 12 hours on phosphoimager plates or 36 hours on X-ray films.
(§6) Ligand binding analysis was performed as described for the VEGF-C/VEGF-A hybrid growth factors in Example 1. Briefly, the unlabeled conditioned medium of transiently transfected 293T cells expressing the chimeric VEGFR/IgG1Fc fusion proteins was used to precipitate the ^35S metabolically labeled mature VEGF-C, full-length VEGF-C, and VEGF-A165.

The subject of test [4] is mature VEGF-C, full-length VEGF-C. As to the kind of experiment: Ligand binding analysis of chimeric VEGF receptor/hIgG1Fc fusions, VEGF-C. More on the design: species or system human. The settings on record: 35S-labeled mature and full-length VEGF-C precipitated with conditioned medium of 293T cells, SDS-PAGE. Here is the method:
as §4, §5, §6

Sequence of mature VEGF-C, full-length VEGF-C (P49767 112-227 limits assumed): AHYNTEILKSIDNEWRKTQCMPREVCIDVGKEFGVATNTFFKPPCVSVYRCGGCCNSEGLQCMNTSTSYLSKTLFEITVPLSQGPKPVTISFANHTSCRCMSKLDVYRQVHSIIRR

With “R-2 I: Fc fusion of VEGFR-2 residues 118-226 with CD33 signal peptide; SEQ ID NOS: 23 and 24”, the “Binds VEGF-A” value in test [1] is “No”. In test [2] (VEGFR-2 Fc fusion constructs), the “Binds VEGF-C” value was “Weak”.
Turning to “R-3 K: Fc fusion of VEGFR-3 residues 1-39, 132-229; SEQ ID NOS: 51 and 52”, the “Binds VEGF-C” value in test [2] (VEGFR-3 Fc fusion constructs) is “No”.
Same read-out and setting: as for “R-3 I: Fc fusion of VEGFR-3 residues 1-39, 132-329; SEQ ID NOS: 47 and 48”, the entry is “No”.
In the case of “R-2 E: Fc fusion of VEGFR-2 residues 24-241 with CD33 signal peptide; SEQ ID NOS: 15 and 16”, the “Binds VEGF-A” value in test [1] is “No”. The “Binds VEGF-C” value in test [2] (VEGFR-2 Fc fusion constructs) is on record as “No”.
Take “R-3 J: Fc fusion of VEGFR-3 residues 1-39, 132-247; SEQ ID NOS: 49 and 50”: the “Binds VEGF-C” value in test [2] (VEGFR-3 Fc fusion constructs) is reported as “No”.
As for “R-2 C: Fc fusion of VEGFR-2 residues 24-226 with CD33 signal peptide; SEQ ID NOS: 11 and 12”, in test [1], the “Binds VEGF-A” value is listed as “No”. In addition, the “Binds VEGF-C” value in test [2] (VEGFR-2 Fc fusion constructs) is given as “No”.
With “R-2 A: Fc fusion of VEGFR-2 (SEQ ID NO: 4) residues 24-326 with CD33 signal peptide; SEQ ID NOS: 7 and 8”, the “Binds VEGF-A” value in test [1] is recorded as “Yes”. For the same substance, the “Binds VEGF-C” value in test [2] (VEGFR-2 Fc fusion constructs) is on record as “Yes”.
As for “R-2 B: Fc fusion of VEGFR-2 residues 24-220 with CD33 signal peptide; SEQ ID NOS: 9 and 10”, in test [1], the “Binds VEGF-A” value is reported as “No”. The “Binds VEGF-C” value in test [2] (VEGFR-2 Fc fusion constructs) is recorded as “No”.
Consider “R-2 K: Fc fusion of VEGFR-2 residues 118-241 with CD33 signal peptide; SEQ ID NOS: 27 and 28”, for which the “Binds VEGF-A” value in test [1] is “No”. Moreover, the “Binds VEGF-C” value in test [2] (VEGFR-2 Fc fusion constructs) is “No”.
Turning to “R-3 G: Fc fusion of VEGFR-3 residues 1-329 (D1-3); SEQ ID NOS: 43 and 44”, the “Binds VEGF-C” value in test [2] (VEGFR-3 Fc fusion constructs) is given as “Yes”.
Still for that read-out and setting: to “R-3 H: Fc fusion of VEGFR-3 residues 1-134; SEQ ID NOS: 45 and 46” belongs “No”; to “R-3 C: Fc fusion of VEGFR-3 residues 1-229; SEQ ID NOS: 35 and 36”, “Yes”.
As for “R-2 F: Fc fusion of VEGFR-2 residues 24-122 with CD33 signal peptide; SEQ ID NOS: 17 and 18”, the “Binds VEGF-A” value in test [1] is on record as “No”. The “Binds VEGF-C” value in test [2] (VEGFR-2 Fc fusion constructs) is “No”.
Turning to “R-3 B: Fc fusion of VEGFR-3 residues 138-226 with CD33 signal peptide; SEQ ID NOS: 33 and 34”, the “Binds VEGF-C” value in test [2] (VEGFR-3 Fc fusion constructs) was “Yes”.
The same measure, in the same setting: as for “R-3 D: Fc fusion of VEGFR-3 residues 1-226; SEQ ID NOS: 37 and 38”, the entry is “Yes”.
For “R-2 L: Fc fusion of VEGFR-2 residues 220-326 with CD33 signal peptide; SEQ ID NOS: 29 and 30”, the “Binds VEGF-A” value in test [1] is “No”. The “Binds VEGF-C” value in test [2] (VEGFR-2 Fc fusion constructs) is given as “No”.
For “R-2 D: Fc fusion of VEGFR-2 residues 24-232 with CD33 signal peptide; SEQ ID NOS: 13 and 14”, the “Binds VEGF-A” value in test [1] is recorded as “No”. Also, the “Binds VEGF-C” value in test [2] (VEGFR-2 Fc fusion constructs) is listed as “No”.
Take “R-3D1-R2D2-R1D3/Ig: chimeric hIgG1Fc fusion: first Ig-like domain of VEGFR-3, second of VEGFR-2, third of VEGFR-1; SEQ ID NO: 128”: in test [3], the “binding to VEGF-A” value is listed as “strongly bound”. For the same substance, the “binding to VEGF-C” value in test [4] is on record as “strongly bound”.
For “R-2 J: Fc fusion of VEGFR-2 residues 118-232 with CD33 signal peptide; SEQ ID NOS: 25 and 26”, in test [1], the “Binds VEGF-A” value was “No”. Besides, in test [2] (VEGFR-2 Fc fusion constructs), the “Binds VEGF-C” value was “Very”.
As for “R-3D1-R2D2+3/Ig: chimeric hIgG1Fc fusion: first Ig-like domain of VEGFR-3 and second and third Ig-like domains of VEGFR-2; SEQ ID NO: 125”, in test [3], the “binding to VEGF-A” value was “not VEGF-A”. The “binding to VEGF-A, second experiment” value in test [3] (second experiment, 35S-labeled VEGF-A165, SDS-PAGE) is reported as “only weak binding”. The “binding to VEGF-C” value in test [4] is “exhibited binding”.
Take “R-2 G: Fc fusion of VEGFR-2 residues 118-326 with CD33 signal peptide; SEQ ID NOS: 19 and 20”: the “Binds VEGF-A” value in test [1] is reported as “Yes”. In addition, the “Binds VEGF-C” value in test [2] (VEGFR-2 Fc fusion constructs) is “Yes”.
For “R-2 H: Fc fusion of VEGFR-2 residues 118-220 with CD33 signal peptide; SEQ ID NOS: 21 and 22”, the “Binds VEGF-A” value in test [1] was “No”. The “Binds VEGF-C” value in test [2] (VEGFR-2 Fc fusion constructs) is on record as “Yes”; in test [2] (VEGFR-2 Fc fusion constructs, listed as R-2H), “sufficient for VEGF-C binding”.
